Test [1] has as its target Transportin 3 (TNPO3), full-length wild type (human) (UniProt Q9Y5L0). Description: ITC; 100 µM ligand in the syringe injected (28 x 10 µL) into 10 µM TNPO3 (WT or C511A) in the cell; 25 °C; 50 mM Tris-HCl pH 7.5, 150 mM NaCl, 2 mM TCEP, 0.04% NaN3.
The target in test [2] is SRSF1 RS-NLS (Homo sapiens) (UniProt Q07955). Put plainly: FP. The following applies: cited from earlier work.
Test [3] has as its target CPSF6 RS-NLS (Homo sapiens) (UniProt Q16630). Description: FP. The following applies: cited from earlier work.
For test [4], the target named is T1, TNPO3 WT (Homo sapiens, UniProt Q9Y5L0).
T1 sequence (Q9Y5L0 1-923): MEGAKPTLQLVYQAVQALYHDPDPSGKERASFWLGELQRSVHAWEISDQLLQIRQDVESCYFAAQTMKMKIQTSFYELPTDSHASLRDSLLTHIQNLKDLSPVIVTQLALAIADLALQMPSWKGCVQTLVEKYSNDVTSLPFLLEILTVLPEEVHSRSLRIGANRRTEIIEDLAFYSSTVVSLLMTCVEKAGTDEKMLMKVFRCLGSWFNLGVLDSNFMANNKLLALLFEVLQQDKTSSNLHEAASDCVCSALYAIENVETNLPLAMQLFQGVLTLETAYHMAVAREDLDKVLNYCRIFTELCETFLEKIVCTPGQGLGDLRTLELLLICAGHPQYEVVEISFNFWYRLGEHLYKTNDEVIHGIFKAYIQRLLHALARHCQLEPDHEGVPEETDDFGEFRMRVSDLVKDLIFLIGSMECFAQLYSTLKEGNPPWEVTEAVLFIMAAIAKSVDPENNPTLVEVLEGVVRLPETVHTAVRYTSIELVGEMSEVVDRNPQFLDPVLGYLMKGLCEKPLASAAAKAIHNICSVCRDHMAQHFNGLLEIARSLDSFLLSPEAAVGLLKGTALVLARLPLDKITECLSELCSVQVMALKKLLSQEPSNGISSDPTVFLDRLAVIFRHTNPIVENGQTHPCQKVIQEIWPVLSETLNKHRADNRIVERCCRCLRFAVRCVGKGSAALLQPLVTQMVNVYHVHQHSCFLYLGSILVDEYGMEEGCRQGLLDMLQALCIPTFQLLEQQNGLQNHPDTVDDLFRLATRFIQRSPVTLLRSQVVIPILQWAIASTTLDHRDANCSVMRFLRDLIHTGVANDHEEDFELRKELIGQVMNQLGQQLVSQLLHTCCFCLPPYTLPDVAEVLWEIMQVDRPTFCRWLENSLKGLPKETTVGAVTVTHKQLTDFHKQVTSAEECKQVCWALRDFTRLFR
Description: ITC, ligand titrated into TNPO3 WT. The format is binding. The following applies: ITC, TNPO3 WT; for Kd: 25 °C, pH 7.5, read-out: TNPO3 binding Kd. On the procedure:
ITC has been performed by a Malvern Microcal VP-ITC at 25 °C for all binding studies. Samples have been dissolved in Tris buffer containing 50 mM Tris–HCl, 150 mM NaCl, 2 mM TCEP, and 0.04% NaN3 at pH 7.5. Binding studies of CIRBP^RSY and SRSF1^RS were performed with TNPO3 WT, and studies of CIRBP (157–172) and its mutants/phosphorylations were performed with TNPO3 C511A, respectively. Injection has been carried out by a syringe containing ligand solution of 100 μM, which adds ligand step-wise into the cell containing 10 μM TNPO3 during 28 injections of 10 μL each. Data analysis, curve fitting, and calculation of Kd, ΔH, and ΔS have been carried out using Origin-based 7.0 software provided by the manufacturer. All replicated ITC data are shown in Supplementary Fig. 6 and Supplementary Table 1.
In general terms: ITC needs no label: the signal is the heat of the interaction.

In test [5] the test system is TNPO3. Description: NMR binding studies with TNPO3 (1H-15N HSQC, 1H-13C HMQC, 1H 1D, STD). The following applies: pH 6.7. Also noted: species or system human. The procedure:
All NMR studies for TNPO3 were carried out using the wild type protein. Protein samples for ^1H-^13C HMQC were prepared at a concentration of 100 μM and equilibrated in a buffer containing 50 mM Tris–HCl, pH 6.7, 150 mM NaCl, 2 mM TCEP and 10% D2O. Spectral acquisitions for TNPO3 free and in complex with CIRBP^RSY and SRSF1^RS, respectively were performed at 298 K on a 700 MHz Bruker Avance III NMR spectrometer equipped with a TCI triple-resonance cryoprobe. The pulse program was sfhmqcf2gpph and the spectra were recorded with 32 scans, interscan delay of 1 s, 160 points in F1, 1024 points in F2, 5283.879 Hz spectral width in F1, and 11,160.714 Hz spectral width in F2. Spectra were processed using Topspin 4.1.3.
Spectral acquisitions for TNPO3 free and in complex with mCIRBP^RSY, pCIRBP^RSY, and pSRSF1^RS, respectively, were performed at 298 K on a 600 MHz Bruker Avance Neo NMR spectrometer equipped with a TXI 600S3 probehead. The pulse program was hmqcgpphwg and the spectra were recorded with 64 scans, interscan delay of 1 s, 200 points in F1, 1024 points in F2, 4545.455 Hz spectral width in F1, and 7812.500 Hz spectral width in F2. Spectra were processed using Topspin 4.3.0.
For ^1H-^15N HSQC spectra, protein samples were equilibrated in a buffer containing 50 mM Tris–HCl, pH 6.7, 150 mM NaCl, 2 mM TCEP, 0.04% NaN3, and 10% D2O (with additional 20 mM MgCl2 for CIRBP phosphorylation kinetics). Data were recorded at 298 K on the 600 MHz Bruker Avance Neo NMR spectrometer equipped with a TXI 600S3 probehead. The pulse program was hsqcetfpf3gpsi and was recorded with 8-16 scans, interscan delay of 1 s, 128 points in F1, 1024 points in F2, 1949.318 Hz spectral width in F1, and 9615.385 Hz spectral width in F2. Spectra were processed using Topspin 4.3.0.

Test [6] deals with T2, Transportin 3 (TNPO3), full-length wild type (human, UniProt Q9Y5L0 1-923).
T2 construct: Transportin 3 (TNPO3), human, full-length wild type; For the NMR experiments made 15N-labelled with 13C-methyl labelling of isoleucine and methionine side chains ([IM-methyl 13C]); Vector pETM11-His6-protein A with a TEV site downstream of the protein A tag; also called TNPO3 WT; TNPO3 FL WT; source: E. coli BL21-(DE3) Star, purified (Ni-NTA, TEV cleavage, second Ni-NTA, SEC Superdex 200); not …
T2 sequence (looked up): T1 sequence (Q9Y5L0 1-923)
Description: NMR titration; 1H NMR spectra of 50 µM peptide free and with a stoichiometric amount (50 µM) of TNPO3 WT; line broadening of peptide signals. The following applies: both partners purified.

Test [7] has as its target T3, Transportin 3 (TNPO3), full-length wild type (human, UniProt Q9Y5L0 1-923).
T3 chain: T1 sequence (Q9Y5L0 1-923)
Put plainly: ITC; phosphorylated, rep2.

Test [8] concerns the target T2, Transportin 3 (TNPO3), full-length wild …. Description: ITC; 100 µM ligand in the syringe injected (28 x 10 µL) into 10 µM TNPO3 (WT or C511A) in the cell; 25 °C; 50 mM Tris-HCl pH 7.5, 150 mM NaCl, 2 mM TCEP, 0.04% NaN3. Particulars: both partners purified.
Test [9] concerns the target T3, Transportin 3 (TNPO3), full-length wild …. Description: ITC; phosphorylated.

Where two headings read alike, the source gives them in different places. Non-standard residues stand in square brackets, D forms with d. No end group written: not given here. pS = N[C@@H](COP(=O)(O)O)C(=O)O

Chain of SRSF1 RS-NLS (Homo sapiens) (Q07955 198-227): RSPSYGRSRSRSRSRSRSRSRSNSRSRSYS
Chain of CPSF6 RS-NLS (Homo sapiens) (Q16630 490-551): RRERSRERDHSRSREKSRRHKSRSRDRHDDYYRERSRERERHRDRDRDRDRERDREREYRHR

For orientation: Kd means the concentration at which binding is half-saturated. “SR/RS-NLS of SRSF1, residues 195-211, phosphorylated in vitro by SRPK1 (from UniProt Q07955 195-211) (domain or fragment)”: in test [1], the dissociation constant Kd is 2.42 µM.
Turning to TNPO3 (from UniProt Q9Y5L0), the Kd in test [2] was 1.3 µM; in test [3], 3.4 µM.
“pSRSF1^RS: SRSF1^RS phosphorylated in vitro using recombinant SRPK1 (DGPRSPSYGRSRSRSRS; also: multiple phosphoserines, sites not listed) [reference compound]”: the values for the Kd in test [4] (replicate 1 (rep1)) and in test [4] (replicate 2 (rep2)) were 2.49 ± 0.4 µM and 2.46 ± 0.5 µM, respectively. The results for the ΔS entry in test [4] (replicate 1 (rep1)) and in [4] (replicate 2 (rep2)) were “–9.12 cal/mol/deg” and “–34.0 cal/mol/deg”, respectively. Also, the “spectral changes of 15N-labeled cargo upon addition of TNPO3 (1H,15N HSQC)” value in test [5] (60 µM cargo, one stoichiometric equivalent of TNPO3, 298 K) is recorded as “extensive line broadening of several NMR signals”. Further, in test [5] (100 µM [IM-methyl 13C] labeled TNPO3, one stoichiometric equivalent of ligand, 298 K), the “chemical shift perturbations of TNPO3 methyl groups upon ligand addition (1H,13C HMQC)” value was “led to CSPs of several TNPO3 ^1H,^13C cross-peaks”.

B1: P5CS (3-20) synthetic peptide (peptide, UniProt P54886 3-20, looked up)
peptide: SQVYRCGFQPFNQHLLPW
notes: Delta-1-pyrroline-5-carboxylate synthase (P5CS), human, residues 3-20; also called P5CS^RSY (3–20); delta-1-pyrroline-5-carboxylate synthase; source: synthetic peptide (Peptide Specialty Laboratories GmbH)
Regarding B1, in test [6], the binding result was “binds”.

B2: RBMX (276-291) synthetic peptide (peptide, UniProt P38159 276-291, looked up)
peptide: PSGGSYRDSYESYGNS
notes: also called RBMX^RSY (276–291); source: synthetic peptide (Peptide Specialty Laboratories GmbH)
As for B2, the binding result in test [6] is “binds”.

B3: RBM39 (86-101) synthetic peptide (peptide, UniProt Q14498 86-101, looked up)
peptide: SRDRRFRGRYRSPYSG
notes: also called RBM39^RSY (86–101); source: synthetic peptide (Peptide Specialty Laboratories GmbH)
Take B3: the binding result in [6] was “binds”.

B4: Phosphorylated RSY region of CIRBP (138-172), phosphorylated in vitro by SRPK1 (domain or fragment, human, UniProt Q14011 138-172, looked up)
chain: SRDYYSSR[pS]Q[pS]GGY[pS]DRSSGGSYRDSYDSYATHNE
notes: also called pCIRBP^RSY; phosphorylated CIRBP^RSY; source: E. coli BL21-(DE3) Star, purified; phosphorylated in vitro with recombinant SRPK1 and ATP overnight, isolated by SEC (Superdex 30 Increase); not shown: His6, N-terminal, cleaved; protein A, N-terminal, cleaved
As to B4, the results for the Kd in [7], in test [8] and in [9] were 2.54 µM, 5.99 µM and 2.54 µM, respectively.
